Data reported in patent US20250121104A1 (FUSION PHARMACEUTICALS, published 2025).

B1: B09-57 IgG (antibody, V domains shown)
VH: QVQLVQSGAEVKKPGASVKVSCKASGYTFTDYYIHWVRQATGQGLEWMGWMNPNSGNTGYAQKFQGRVTMTRDTSISTAYMELSSLRSEDTAVYYCARGQGYTHSWGQGTMVTVSS
VL: DIQMTQSPSTLSASVGDRVTITCRASEGIYHWLAWYQQKPGKAPKLLIYKASSLASGVPSRFSGSGSGTEFTLTISSLQPDDFATYYCQQYSNYPPTFGGGTKLEIK
notes: also called B09-GL; anti-cMET antibody
B2: RAA22 IgG (antibody, V domains shown)
VH: QVQLVQSGAEVKKPGSSVKVSCKASGGTFSDNDFSWVRQAPGQGLEWMGAIVAVFRTETYAQKFQDRVKITADISTRTTYMELSSLRSEDTAVYYCARRLMSAISGPGAPLLMWGQGTLVTVSS
VL: QSALTQPRSVSGSPGQSVTISCTGTSSDVGGYNYVSWYQQHPGKAPKLMIYDVSKRPSGVPDRFSGSKSGNTASLTISGLQAEDEADYYCSSYTSSDTLEIFGGGTKLTVL
notes: also called anti-EGFR antibody clone RAA22

Tests used:
Ron (CD136) = target: T1, Ron (CD136) (UniProt Q04912 25-957, limits assumed); assay: ELISA, antigen coated at 1 µg/mL, antibody titrated from 10 µg/mL
T1 sequence (looked up): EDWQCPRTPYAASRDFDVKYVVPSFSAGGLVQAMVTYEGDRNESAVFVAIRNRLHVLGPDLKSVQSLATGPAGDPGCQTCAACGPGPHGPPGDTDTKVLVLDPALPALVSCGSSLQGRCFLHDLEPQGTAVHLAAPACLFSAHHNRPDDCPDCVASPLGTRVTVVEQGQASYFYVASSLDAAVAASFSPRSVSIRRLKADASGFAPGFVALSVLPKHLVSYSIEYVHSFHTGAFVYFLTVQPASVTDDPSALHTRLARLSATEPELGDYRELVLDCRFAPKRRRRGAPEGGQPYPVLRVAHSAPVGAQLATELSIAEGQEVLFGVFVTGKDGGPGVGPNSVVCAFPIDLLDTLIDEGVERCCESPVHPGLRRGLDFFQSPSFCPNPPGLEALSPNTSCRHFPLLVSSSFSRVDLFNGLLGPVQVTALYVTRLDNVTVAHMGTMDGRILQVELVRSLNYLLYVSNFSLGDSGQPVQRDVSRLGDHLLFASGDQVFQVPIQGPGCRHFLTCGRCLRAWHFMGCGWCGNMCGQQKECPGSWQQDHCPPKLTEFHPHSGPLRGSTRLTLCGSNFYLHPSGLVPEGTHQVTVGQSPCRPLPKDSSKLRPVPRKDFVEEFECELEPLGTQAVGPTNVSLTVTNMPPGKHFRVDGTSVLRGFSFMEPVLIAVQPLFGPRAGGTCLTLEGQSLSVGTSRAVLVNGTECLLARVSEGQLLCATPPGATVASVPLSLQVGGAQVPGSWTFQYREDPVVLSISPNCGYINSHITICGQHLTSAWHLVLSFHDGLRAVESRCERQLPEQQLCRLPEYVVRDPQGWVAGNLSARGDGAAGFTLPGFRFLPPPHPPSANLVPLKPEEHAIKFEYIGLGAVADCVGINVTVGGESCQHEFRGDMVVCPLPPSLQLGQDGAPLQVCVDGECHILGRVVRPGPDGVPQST
Procedure: (§1) Specificity for EGFR and cMET species paralogs and closely related family members was determined by ELISA. Briefly, antigen solutions were prepared in PBS at 1 μg/mL and 50 microliters was coated onto half area ELISA assay plates. Plates were washed and blocked with 1% BSA in PBS containing 0.005% Tween-20 (PBS-T) for one hour at room temperature. […] Wells were incubated with 50 microliters of the indicated primary antibodies diluted in PBS-T in a 1:3 dilution series, starting at 10 μg/mL and ending at 0.002 μg/mL, except for the HER4 binding mAb control, MAB1131, for which the series started at 1 μg/mL. The wells were washed 4 times in PBS-T, then 50 μl of goat anti-human Fab HRP-labeled secondary antibody, diluted 1:5000 in PBS-T, was added to each well and incubated for one hour at room temperature. […] 50 microliters of TMB stop solution was added to all wells and the absorbance was read at 450 nm on a SpectraMax M5 microplate reader. Data were analyzed in the SoftMax Pro 5 software and plotted using GraphPad Prism 7 graphing software.
(§2) To determine the species cross reactivity, ELISA assays were carried out as described above.

Semaphorin 3a = target: T2, Semaphorin 3a (UniProt Q14563 21-771, limits assumed); assay: as above
T2 sequence (looked up): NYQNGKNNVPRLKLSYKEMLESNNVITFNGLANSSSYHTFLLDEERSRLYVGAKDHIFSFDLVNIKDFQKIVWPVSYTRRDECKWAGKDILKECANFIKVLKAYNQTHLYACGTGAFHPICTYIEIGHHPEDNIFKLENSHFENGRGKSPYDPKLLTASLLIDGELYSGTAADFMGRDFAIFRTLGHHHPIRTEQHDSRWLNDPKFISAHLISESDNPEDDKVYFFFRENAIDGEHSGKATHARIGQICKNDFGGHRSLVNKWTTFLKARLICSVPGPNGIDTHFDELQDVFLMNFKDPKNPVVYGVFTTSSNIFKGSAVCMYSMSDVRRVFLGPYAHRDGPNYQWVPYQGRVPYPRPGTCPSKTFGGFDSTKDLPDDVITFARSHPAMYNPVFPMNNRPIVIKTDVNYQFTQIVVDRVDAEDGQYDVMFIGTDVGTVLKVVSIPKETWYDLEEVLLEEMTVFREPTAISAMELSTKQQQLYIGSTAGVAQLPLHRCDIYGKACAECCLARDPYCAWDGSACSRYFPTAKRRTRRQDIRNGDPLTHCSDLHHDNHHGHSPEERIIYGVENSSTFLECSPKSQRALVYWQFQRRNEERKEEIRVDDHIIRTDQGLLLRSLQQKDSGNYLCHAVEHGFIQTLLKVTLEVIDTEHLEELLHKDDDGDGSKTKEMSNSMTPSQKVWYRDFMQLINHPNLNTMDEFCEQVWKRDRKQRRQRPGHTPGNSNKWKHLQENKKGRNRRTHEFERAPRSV
Procedure: as §1, §2

mouse cMET (recombinant) = mouse cMET (recombinant) (mouse, UniProt P16056 25-929, limits assumed); assay: SPR (BIAcore T200), antibody captured on anti-human IgG, soluble antigen as analyte
[1] = target: T3, human EGFR (recombinant, soluble monomeric) (human, UniProt P00533 25-645); assay: as above
T3 construct: also called EGFR antigen

[2] = target: T4, cynomolgus monkey EGFR (recombinant, soluble monomeric) (cynomolgus monkey, UniProt P55245 25-645 (rhesus entry)); assay: as above
T4 construct: also called cyno EGFR

mouse EGFR (recombinant) = target: T5, mouse EGFR (recombinant) (mouse, UniProt Q01279 25-647); assay: as above
T5 construct: also called murine EGFR

[3] = target: T6, cynomolgus monkey cMET (recombinant, soluble monomeric) (cynomolgus monkey, UniProt A0M8R7 25-932 (Papio anubis entry)); assay: as above
T6 construct: also called cyno cMET

[4] = target: T7, human cMET (recombinant, soluble monomeric) (human, UniProt P08581 25-932); assay: as above
T7 construct: also called cMET antigen; His-tagged cMET antigen
T7 sequence (P08581 25-932): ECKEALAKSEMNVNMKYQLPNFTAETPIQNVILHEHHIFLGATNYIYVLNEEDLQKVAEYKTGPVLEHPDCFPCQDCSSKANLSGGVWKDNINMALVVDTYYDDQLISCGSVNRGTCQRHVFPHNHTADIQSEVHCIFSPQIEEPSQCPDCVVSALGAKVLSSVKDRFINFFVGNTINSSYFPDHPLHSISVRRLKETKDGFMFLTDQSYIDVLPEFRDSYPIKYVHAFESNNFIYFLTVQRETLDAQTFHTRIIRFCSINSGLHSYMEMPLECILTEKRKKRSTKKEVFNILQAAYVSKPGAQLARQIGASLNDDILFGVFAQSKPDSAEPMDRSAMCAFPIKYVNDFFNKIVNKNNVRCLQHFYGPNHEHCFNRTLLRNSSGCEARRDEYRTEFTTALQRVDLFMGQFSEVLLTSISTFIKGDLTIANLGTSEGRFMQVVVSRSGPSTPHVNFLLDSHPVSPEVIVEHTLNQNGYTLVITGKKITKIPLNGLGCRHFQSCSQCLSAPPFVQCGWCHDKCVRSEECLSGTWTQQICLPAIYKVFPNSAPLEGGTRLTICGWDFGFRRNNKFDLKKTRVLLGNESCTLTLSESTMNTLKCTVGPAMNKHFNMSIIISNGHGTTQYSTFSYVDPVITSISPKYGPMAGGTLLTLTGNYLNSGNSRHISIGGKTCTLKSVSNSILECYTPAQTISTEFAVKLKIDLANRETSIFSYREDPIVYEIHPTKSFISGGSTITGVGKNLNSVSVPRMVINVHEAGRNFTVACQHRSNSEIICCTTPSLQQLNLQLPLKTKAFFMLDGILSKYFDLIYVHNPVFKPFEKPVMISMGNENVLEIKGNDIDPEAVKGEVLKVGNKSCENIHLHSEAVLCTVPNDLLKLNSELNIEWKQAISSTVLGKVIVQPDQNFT

Sequence of mouse cMET (recombinant) (P16056 25-929 limits assumed): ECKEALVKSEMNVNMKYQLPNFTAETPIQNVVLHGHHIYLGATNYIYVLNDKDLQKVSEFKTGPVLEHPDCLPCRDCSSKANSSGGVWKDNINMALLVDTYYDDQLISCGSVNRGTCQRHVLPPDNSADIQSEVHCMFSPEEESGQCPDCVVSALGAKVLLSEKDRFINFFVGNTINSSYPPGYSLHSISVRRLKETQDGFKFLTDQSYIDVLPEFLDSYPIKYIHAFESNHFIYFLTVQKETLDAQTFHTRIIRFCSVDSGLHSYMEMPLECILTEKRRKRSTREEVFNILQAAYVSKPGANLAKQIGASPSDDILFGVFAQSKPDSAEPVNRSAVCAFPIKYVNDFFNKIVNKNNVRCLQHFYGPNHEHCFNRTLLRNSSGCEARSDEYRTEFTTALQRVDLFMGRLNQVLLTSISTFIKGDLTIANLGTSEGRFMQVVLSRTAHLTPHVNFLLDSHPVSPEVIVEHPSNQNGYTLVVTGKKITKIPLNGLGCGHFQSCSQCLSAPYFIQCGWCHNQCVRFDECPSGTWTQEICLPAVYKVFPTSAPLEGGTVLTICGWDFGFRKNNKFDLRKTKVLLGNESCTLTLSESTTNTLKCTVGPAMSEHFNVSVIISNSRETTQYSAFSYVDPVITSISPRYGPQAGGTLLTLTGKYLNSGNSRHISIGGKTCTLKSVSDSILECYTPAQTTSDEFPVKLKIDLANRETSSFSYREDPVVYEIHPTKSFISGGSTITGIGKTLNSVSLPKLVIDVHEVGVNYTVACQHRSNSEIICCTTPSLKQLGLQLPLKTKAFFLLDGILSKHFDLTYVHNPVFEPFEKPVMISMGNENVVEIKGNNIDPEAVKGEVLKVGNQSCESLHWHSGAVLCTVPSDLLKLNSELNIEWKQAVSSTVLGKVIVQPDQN
T6 sequence (A0M8R7 25-932 S170N/I621T): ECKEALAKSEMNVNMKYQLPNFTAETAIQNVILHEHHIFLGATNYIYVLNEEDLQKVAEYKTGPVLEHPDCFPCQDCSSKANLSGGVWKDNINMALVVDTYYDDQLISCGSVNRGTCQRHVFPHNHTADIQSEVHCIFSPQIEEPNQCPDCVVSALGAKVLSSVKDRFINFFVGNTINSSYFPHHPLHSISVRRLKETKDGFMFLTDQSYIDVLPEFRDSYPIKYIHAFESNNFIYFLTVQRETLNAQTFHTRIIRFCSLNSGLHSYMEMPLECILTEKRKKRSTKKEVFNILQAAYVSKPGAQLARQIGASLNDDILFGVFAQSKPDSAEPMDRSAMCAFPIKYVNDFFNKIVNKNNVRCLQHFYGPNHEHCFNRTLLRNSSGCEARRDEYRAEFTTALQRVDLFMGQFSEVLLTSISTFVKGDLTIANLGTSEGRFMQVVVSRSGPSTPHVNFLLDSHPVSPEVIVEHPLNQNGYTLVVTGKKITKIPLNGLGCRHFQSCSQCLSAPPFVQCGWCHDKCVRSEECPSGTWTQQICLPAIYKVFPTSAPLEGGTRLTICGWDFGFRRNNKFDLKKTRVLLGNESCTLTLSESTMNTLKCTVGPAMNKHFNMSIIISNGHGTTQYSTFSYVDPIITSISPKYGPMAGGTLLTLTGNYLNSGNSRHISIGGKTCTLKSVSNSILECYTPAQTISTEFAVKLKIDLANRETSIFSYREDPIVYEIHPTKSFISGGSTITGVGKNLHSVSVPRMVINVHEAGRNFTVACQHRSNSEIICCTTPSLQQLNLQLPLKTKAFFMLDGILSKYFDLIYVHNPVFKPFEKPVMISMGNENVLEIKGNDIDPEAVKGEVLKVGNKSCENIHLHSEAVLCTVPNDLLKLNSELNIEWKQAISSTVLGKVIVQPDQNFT

Row | Binder | binding result (Ron (CD136)) | binding result (Semaphorin 3a) | binding result (mouse cMET (recombinant)) | binding result [1] | binding result [2] | binding result (mouse EGFR (recombinant)) | binding result [3] | binding result [4]
1 | B1 | no binding (tested: 10 µg/mL) | no binding (tested: 10 µg/mL) | no binding (tested: 200 nM) | no binding (tested: 200 nM) | no binding (tested: 200 nM) | no binding (tested: 200 nM) | – | –
2 | B2 | no binding (tested: 10 µg/mL) | no binding (tested: 10 µg/mL) | no binding (tested: 200 nM) | – | – | – | no binding (tested: 200 nM) | no binding (tested: 200 nM)
